± gives the uncertainty stated by the source.
Experiment: self-splicing fitness, log relative to wild type (ln ratio); higher = more splicing; Tetrahymena group I intron in knt gene, E. coli kanamycin selection, DiMSum; sequences stand for … in CUCUCU…GGAGGGAAAAGUUAUCAGGCAUGCACCUGGUAGCUAGUCUUUAAACCAAUAGAUUGCAUCGGUUUAAAAGGCAAGACCGUCAAAUUGCGGGAAAGGGGUCAACAGCCGUUCAGUACCAAGUCUCAGGGGAAACUUUGAGAUGGCCUUGCAAAGGGUAUGGUAAUAAGCUGACGGACAUGGUCCUAACCACGCAGCCAAGUCCUAAGUCAACAGAUCUUCUGUUGAUAUGGAUGCAGUUCACAGACUAAAUGUCGGUCGGGGAAGAUGUAUUCUUCUCAUAAGAUAUAGUCGGACCUCUCCUUAAUGGGAGCUAGCGGAUGAAGUGAUGCAACACUGGAGCCGCUGGGAACUAAUUUGUAUGCGAAAGUAUAUUGAUUAGUUUUGGAGUACUCGUGGUCG
Procedure, shortened: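 Library with all eight P1ex-region intron nucleotides randomised, intron inside the knt kanamycin-resistance gene on pET-22b(+), in E. coli BL21(DE3). Cells grew overnight at 37°C or 30°C on LB agar with or without 25 μg/mL kanamycin (plus 100 μg/mL carbenicillin, 50 μM IPTG, 0.2% rhamnose), in six replicate transformations. Pooled colonies were amplicon-sequenced on Illumina HiSeq 2500. DiMSum fitness is the error-weighted combination of wild-type-normalised replicate fold changes, kanamycin versus none.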

| Sequence | self-splicing fitness (ln) (30 °C) | self-splicing fitness (ln) (37 °C) |
| --- | --- | --- |
| GAACAGCAAUAUUACGGGCA | -0.822 ± 0.096 | -0.223 ± 0.093 |
| CUGCAGCAAUAUUACGAUGU | -3.96 ± 0.23 | -2.71 ± 0.3 |
| AGCAAGCAAUAUUACGUCAU | -1.5 ± 0.078 | -1.23 ± 0.084 |
| GGCAAGCAAUAUUACGUGGC | -3.53 ± 0.34 | -1.28 ± 0.19 |
| UCGAAGCAAUAUUACGUCGG | -2.65 ± 0.17 | -3.7 ± 0.31 |
| UUCUAGCAAUAUUACGACAC | -2.05 ± 0.27 | -1.71 ± 0.28 |
| CGCCAGCAAUAUUACGAAUA | -3.44 ± 0.34 |  |
| AAGAAGCAAUAUUACGUAUC | -2.31 ± 0.16 | -0.892 ± 0.18 |
| UCGAAGCAAUAUUACGGGUU | -4.87 ± 0.29 | -1.47 ± 0.14 |
| UCGCAGCAAUAUUACGCGAU | -2.55 ± 0.18 | -2.97 ± 0.25 |
| GUGUAGCAAUAUUACGUUUC | -2.63 ± 0.13 | -1.92 ± 0.13 |
| UUAGAGCAAUAUUACGCGUU | -2.85 ± 0.17 | -1.62 ± 0.17 |
| AAGCAGCAAUAUUACGGUUC | -2.24 ± 0.097 | -2.02 ± 0.12 |
| CGGCAGCAAUAUUACGGCGG | -1.26 ± 0.11 | -0.79 ± 0.14 |
| AAGCAGCAAUAUUACGGAUC | -1.81 ± 0.093 | -1 ± 0.1 |
| AACAAGCAAUAUUACGCUAC |  | -3.21 ± 0.4 |
| GUGCAGCAAUAUUACGGCUU | -0.306 ± 0.052 | -0.128 ± 0.072 |
| GGGCAGCAAUAUUACGAUUU | -0.054 ± 0.053 | -0.281 ± 0.065 |
| GACGAGCAAUAUUACGAGCU | -3.27 ± 0.31 |  |
| AUCAAGCAAUAUUACGCCUU | -0.799 ± 0.094 | -0.146 ± 0.12 |
| AACUAGCAAUAUUACGUUUC | -3.35 ± 0.18 | -2.58 ± 0.25 |
| AGGUAGCAAUAUUACGCAGU | -2.979 ± 0.021 | -1.68 ± 0.035 |
| UUCAAGCAAUAUUACGACCA | -1.48 ± 0.31 | -0.352 ± 0.21 |
| AUGCAGCAAUAUUACGUGGG |  | -2.97 ± 0.28 |
| CUACAGCAAUAUUACGGGCA | -2.76 ± 0.18 | -2.21 ± 0.21 |
| GAAUAGCAAUAUUACGGAAC | -2.37 ± 0.16 | -0.0927 ± 0.15 |

From the supplement of paper PMC7877785
